Results on one protein are retold here after publication PMC3937768 (Cell metabolism, 2014).

This data set deals with the molecule itself. In words: non-reducing SDS-PAGE with immunoblot.

B1: Recombinant AMPKα2 (enzyme, rat, UniProt Q09137 1-552, looked up)
chain: MAEKQKHDGRVKIGHYVLGDTLGVGTFGKVKIGEHQLTGHKVAVKILNRQKIRSLDVVGKIKREIQNLKLFRHPHIIKLYQVISTPTDFFMVMEYVSGGELFDYICKHGRVEEVEARRLFQQILSAVDYCHRHMVVHRDLKPENVLLDAQMNAKIADFGLSNMMSDGEFLRTSCGSPNYAAPEVISGRLYAGPEVDIWSCGVILYALLCGTLPFDDEHVPTLFKKIRGGVFYIPEYLNRSIATLLMHMLQVDPLKRATIKDIREHEWFKQDLPSYLFPEDPSYDANVIDDEAVKEVCEKFECTESEVMNSLYSGDPQDQLAVAYHLIIDNRRIMNQASEFYLASSPPTGSFMDDMAMHIPPGLKPHPERMPPLIADSPKARCPLDALNTTKPKSLAVKKAKWHLGIRSQSKPYDIMAEVYRAMKQLDFEWKVVNAYHLRVRRKNPVTGNYVKMSLQLYLVDNRSYLLDFKSIDDEVVEQRSGSSTPQRSCSAAGLHRPRSSVDSSTAENHSLSGSLTGSLTGSTLSSASPRLGSHTMDFFEMCASLITALAR
For B1, the binding result was “binds”.
